# Measured values reported in the supplement of paper PMC5998384.
# What was measured:
# HeLa Kyoto [1] = assay: melting temperature (median over replicates), in situ; higher = more thermally stable
# HeLa Kyoto [2] = assay: solubility change mitosis vs G1/S (difference of NP-40 vs SDS log2 ratios) (log2 ratio difference); higher = more soluble in mitosis
# HeLa Kyoto [3] = assay: thermal stability score vs G1/S (z-score of summed log2 fold changes over temperatures); higher = more thermally stable than in G1/S
# HeLa Kyoto [4] = assay: solubility in G1/S (NP-40 vs SDS abundance) (log2 ratio); higher = more soluble; settings: cell cycle stage: G1/S
# [5] = cell cycle stage: early G1 (4.5 h after nocodazole release)
# 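For melting temperature (median over replicates), in situ in this document: HeLa Kyoto cells synchronized by double thymidine or nocodazole block, proteins quantified by TMT10plex mass spectrometry, three independent biological replicates.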
# 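For solubility change mitosis vs G1/S (difference of NP-40 vs SDS log2 ratios) in this document: synchronized HeLa Kyoto cells (double thymidine block for G1/S, nocodazole release for mitosis), protein amounts in NP-40 versus SDS lysates quantified by mass spectrometry, three biological replicates.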
# 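For solubility in G1/S (NP-40 vs SDS abundance) in this document: HeLa Kyoto cells arrested at G1/S by double thymidine block, proteins quantified by TMT10plex mass spectrometry in mild NP-40 versus SDS extracts, three biological replicates.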
# 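For thermal stability score vs G1/S (z-score of summed log2 fold changes over temperatures) in this document: synchronized HeLa Kyoto cells, proteins quantified by TMT10plex mass spectrometry, three biological replicates, mitosis taken 0.5 h after nocodazole release, G1/S directly after double thymidine block.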
Sequence,melting temperature (HeLa Kyoto [1]; cell cycle stage: G1/S),melting temperature (HeLa Kyoto [1]; cell cycle stage: mitosis),solubility change mitosis (log2) (HeLa Kyoto [2]),thermal stability score (HeLa Kyoto [3]; [5]),thermal stability score (HeLa Kyoto [3]; cell cycle stage: mitosis),solubility in G1/S (log2) (HeLa Kyoto [4])
MGTPGEGLGRCSHALIRGVPESLASGEGAGAGLPALDLAKAQREHGVLGGKLRQRLGLQLLELPPEESLPLGPLLGDTAVIQGDTALITRPWSPARRPEVDGVRKALQDLGLRIVEIGDENATLDGTDVLFTGREFFVGLSKWTNHRGAEIVADTFRDFAVSTVPVSGPSHLRGLCGMGGPRTVVAGSSDAAQKAVRAMAVLTDHPYASLTLPDDAAADCLFLRPGLPGVPPFLLHRGGGDLPNSQEALQKLSDVTLVPVSCSELEKAGAGLSSLCLVLSTRPHS [DDAH2],55.2 °C,54 °C,0.0772,0.156,0.00237,0.479
MGTPQKDVIIKSDAPDTLLLEKHADYIASYGSKKDDYEYCMSEYLRMSGIYWGLTVMDLMGQLHRMNREEILAFIKSCQHECGGISASIGHDPHLLYTLSAVQILTLYDSINVIDVNKVVEYVKGLQKEDGSFAGDIWGEIDTRFSFCAVATLALLGKLDAINVEKAIEFVLSCMNFDGGFGCRPGSESHAGQIYCCTGFLAITSQLHQVNSDLLGWWLCERQLPSGGLNGRPEKLPDVCYSWWVLASLKIIGRLHWIDREKLRNFILACQDEETGGFADRPGDMVDPFHTLFGIAGLSLLGEEQIKPVNPVFCMPEEVLQRVNVQPELVS [RABGGTB],49.8 °C,50.3 °C,-0.347,-0.232,1.64,0.122
MGTPRAQHPPPPQLLFLILLSCPWIQGLPLKEEEILPEPGSETPTVASEALAELLHGALLRRGPEMGYLPGSDRDPTLATPPAGQTLAVPSLPRATEPGTGPLTTAVTPNGVRGAGPTAPELLTPPPGTTAPPPPSPASPGPPLGPEGGEEETTTTIITTTTVTTTVTSPVLCNNNISEGEGYVESPDLGSPVSRTLGLLDCTYSIHVYPGYGIEIQVQTLNLSQEEELLVLAGGGSPGLAPRLLANSSMLGEGQVLRSPTNRLLLHFQSPRVPRGGGFRIHYQAYLLSCGFPPRPAHGDVSVTDLHPGGTATFHCDSGYQLQGEETLICLNGTRPSWNGETPSCMASCGGTIHNATLGRIVSPEPGGAVGPNLTCRWVIEAAEGRRLHLHFERVSLDEDNDRLMVRSGGSPLSPVIYDSDMDDVPERGLISDAQSLYVELLSETPANPLLLSLRFEAFEEDRCFAPFLAHGNVTTTDPEYRPGALATFSCLPGYALEPPGPPNAIECVDPTEPHWNDTEPACKAMCGGELSEPAGVVLSPDWPQSYSPGQDCVWGVHVQEEKRILLQVEILNVREGDMLTLFDGDGPSARVLAQLRGPQPRRRLLSSGPDLTLQFQAPPGPPNPGLGQGFVLHFKEVPRNDTCPELPPPEWGWRTASHGDLIRGTVLTYQCEPGYELLGSDILTCQWDLSWSAAPPACQKIMTCADPGEIANGHRTASDAGFPVGSHVQYRCLPGYSLEGAAMLTCYSRDTGTPKWSDRVPKCALKYEPCLNPGVPENGYQTLYKHHYQAGESLRFFCYEGFELIGEVTITCVPGHPSQWTSQPPLCKVTQTTDPSRQLEGGNLALAILLPLGLVIVLGSGVYIYYTKLQGKSLFGFSGSHSYSPITVESDFSNPLYEAGDTREYEVSI [SEZ6L2],53.7 °C,54.8 °C,0.0248,-0.928,-1.52,-0.174
MGTQKVTPALIFAITVATIGSFQFGYNTGVINAPEKIIKEFINKTLTDKGNAPPSEVLLTSLWSLSVAIFSVGGMIGSFSVGLFVNRFGRRNSMLIVNLLAVTGGCFMGLCKVAKSVEMLILGRLVIGLFCGLCTGFVPMYIGEISPTALRGAFGTLNQLGIVVGILVAQIFGLEFILGSEELWPLLLGFTILPAILQSAALPFCPESPRFLLINRKEEENAKQILQRLWGTQDVSQDIQEMKDESARMSQEKQVTVLELFRVSSYRQPIIISIVLQLSQQLSGINAVFYYSTGIFKDAGVQEPIYATIGAGVVNTIFTVVSLFLVERAGRRTLHMIGLGGMAFCSTLMTVSLLLKDNYNGMSFVCIGAILVFVAFFEIGPGPIPWFIVAELFSQGPRPAAMAVAGCSNWTSNFLVGLLFPSAAHYLGAYVFIIFTGFLITFLAFTFFKVPETRGRTFEDITRAFEGQAHGADRSGKDGVMEMNSIEPAKETTTNV [SLC2A3],62.7 °C,59.1 °C,-0.0464,-2.61,-5.18,-0.0807
MGTVHARSLEPLPSSGPDFGGLGEEAEFVEVEPEAKQEILENKDVVVQHVHFDGLGRTKDDIIICEIGDVFKAKNLIEVMRKSHEAREKLLRLGIFRQVDVLIDTCQGDDALPNGLDVTFEVTELRRLTGSYNTMVGNNEGSMVLGLKLPNLLGRAEKVTFQFSYGTKETSYGLSFFKPRPGNFERNFSVNLYKVTGQFPWSSLRETDRGMSAEYSFPIWKTSHTVKWEGVWRELGCLSRTASFAVRKESGHSLKSSLSHAMVIDSRNSSILPRRGALLKVNQELAGYTGGDVSFIKEDFELQLNKQLIFDSVFSASFWGGMLVPIGDKPSSIADRFYLGGPTSIRGFSMHSIGPQSEGDYLGGEAYWAGGLHLYTPLPFRPGQGGFGELFRTHFFLNAGNLCNLNYGEGPKAHIRKLAECIRWSYGAGIVLRLGNIARLELNYCVPMGVQTGDRICDGVQFGAGIRFL [SAMM50],56.1 °C,54.6 °C,-0.0834,-2.61,-4.33,-0.348
MGVQGFQDYIEKHCPSAVVPVELQKLARGSLVGGGRQRPPQTPLRLLVDADNCLHRLYGGFYTDWVSGGQWNHMLGYLAALAKACFGGNIELFVFFNGALEKARLHEWVKRQGNERQTAQQIVSHVQNKGTPPPKVWFLPPVCMAHCIRLALIRFHVKVAQSIEDHHQEVIGFCRENGFHGLVAYDSDYALCNIPYYFSAHALKLSRNGKSLTTSQYLMHEVAKQLDLNPNRFPIFAALLGNHILPDEDLASFHWSLLGPEHPLASLKVRAHQLVLPPCDVVIKAVADYVRNIQDTSDLDAIAKDVFQHSQSRTDDKVIRFKRAIGYYSATSKPMSFHPPHYLAARPGPFGMPGMVPPHVPPQMLNIPQTSLQAKPVAPQVPSPGGAPGQGPYPYSLSEPAPLTLDTSGKNLTEQNSYSNIPHEGKHTPLYERSSPINPAQSGSPNHVDSAYFPGSSTSSSSDNDEGSGGATNHISGNKIGWEKTGSHSEPQARGDPGDQTKAEGSSTASSGSQLAEGKGSQMGTVQPIPCLLSMPTRNHMDITTPPLPPVAPEVLRVAEHRHKKGLMYPYIFHVLTKGEIKIAVSIEDEANKDLPPAALLYRPVRQYVYGVLFSLAESRKKTERLAFRKNRLPPEFSPVIIKEWAAYKGKSPQTPELVEALAFREWTCPNLKRLWLGKAVEDKNRRMRAFLACMRSDTPAMLNPANVPTHLMVLCCVLRYMVQWPGARILRRQELDAFLAQALSPKLYEPDQLQELKIENLDPRGIQLSALFMSGVDMALFANDACGQPIPWEHCCPWMYFDGKLFQSKLLKASREKTPLIDLCDGQADQAAKVEKMRQSVLEGLSFSRQSHTLPFPPPPALPFYPASAYPRHFGPVPPSQGRGRGFAGVCGFGGPYGETVATGPYRAFRVAAASGHCGAFSGSDSSRTSKSQGGVQPIPSQGGKLEIAGTVVGHWAGSRRGRGGRGPFPLQVVSVGGPARGRPRGVISTPVIRTFGRGGRYYGRGYKNQAAIQGRPPYAASAEEVAKELKSKSGESKSSAMSSDGSLAENGVMAEEKPAPQMNGSTGDARAPSHSESALNNDSKTCNTNPHLNALSTDSACRREAALEAAVLNKEE [FAM120A],50.9 °C,50.6 °C,-0.0663,-0.707,-2.24,-0.143
MHPAGLAAAAAGTPRLRKWPSKRRIPVSQPGMADPHQLFDDTSSAQSRGYGAQRAPGGLSYPAASPTPHAAFLADPVSNMAMAYGSSLAAQGKELVDKNIDRFIPITKLKYYFAVDTMYVGRKLGLLFFPYLHQDWEVQYQQDTPVAPRFDVNAPDLYIPAMAFITYVLVAGLALGTQDRFSPDLLGLQASSALAWLTLEVLAILLSLYLVTVNTDLTTIDLVAFLGYKYVGMIGGVLMGLLFGKIGYYLVLGWCCVAIFVFMIRTLRLKILADAAAEGVPVRGARNQLRMYLTMAVAAAQPMLMYWLTFHLVR [YIF1B],53.5 °C,54.8 °C,-0.373,-0.959,-1.51,0.0319
MHQQKRQPELVEGNLPVFVFPTELIFYADDQSTHKQVLTLYNPYEFALKFKVLCTTPNKYVVVDAAGAVKPQCCVDIVIRHRDVRSCHYGVIDKFRLQVSEQSQRKALGRKEVVATLLPSAKEQQKEEEEKRLKEHLTESLFFEQSFQPENRAVSSGPSLLTVFLGVVCIAALMLPTLGDVESLVPLYLHLSVNQKLVAAYILGLITMAILRT [MOSPD1],54.2 °C,54.9 °C,0.352,-1.29,-2.15,0.0717
MHSEAEESKEVATDVFNSKNLAVQAQKKILGKMVSKSIATTLIDDTSSEVLDELYRVTREYTQNKKEAEKIIKNLIKTVIKLAILYRNNQFNQDELALMEKFKKKVHQLAMTVVSFHQVDYTFDRNVLSRLLNECREMLHQIIQRHLTAKSHGRVNNVFDHFSDCEFLAALYNPFGNFKPHLQKLCDGINKMLDEENI [TNFAIP8],51.9 °C,51.7 °C,-0.272,0.429,-0.108,0.339
MHVIKRDGRQERVMFDKITSRIQKLCYGLNMDFVDPAQITMKVIQGLYSGVTTVELDTLAAETAATLTTKHPDYAILAARIAVSNLHKETKKVFSDVMEDLYNYINPHNGKHSPMVAKSTLDIVLANKDRLNSAIIYDRDFSYNYFGFKTLERSYLLKINGKVAERPQHMLMRVSVGIHKEDIDAAIETYNLLSERWFTHASPTLFNAGTNRPQLSSCFLLSMKDDSIEGIYDTLKQCALISKSAGGIGVAVSCIRATGSYIAGTNGNSNGLVPMLRVYNNTARYVDQGGNKRPGAFAIYLEPWHLDIFEFLDLKKNTGKEEQRARDLFFALWIPDLFMKRVETNQDWSLMCPNECPGLDEVWGEEFEKLYASYEKQGRVRKVVKAQQLWYAIIESQTETGTPYMLYKDSCNRKSNQQNLGTIKCSNLCTEIVEYTSKDEVAVCNLASLALNMYVTSEHTYDFKKLAEVTKVVVRNLNKIIDINYYPVPEACLSNKRHRPIGIGVQGLADAFILMRYPFESAEAQLLNKQIFETIYYGALEASCDLAKEQGPYETYEGSPVSKGILQYDMWNVTPTDLWDWKVLKEKIAKYGIRNSLLIAPMPTASTAQILGNNESIEPYTSNIYTRRVLSGEFQIVNPHLLKDLTERGLWHEEMKNQIIACNGSIQSIPEIPDDLKQLYKTVWEISQKTVLKMAAERGAFIDQSQSLNIHIAEPNYGKLTSMHFYGWKQGLKTGMYYLRTRPAANPIQFTLNKEKLKDKEKVSKEEEEKERNTAAMVCSLENRDECLMCGS [RRM1],56.1 °C,53.8 °C,-0.154,-8.92,-8.47,-0.148
MIALFNKLLDWFKALFWKEEMELTLVGLQYSGKTTFVNVIASGQFNEDMIPTVGFNMRKITKGNVTIKLWDIGGQPRFRSMWERYCRGVSAIVYMVDAADQEKIEASKNELHNLLDKPQLQGIPVLVLGNKRDLPGALDEKELIEKMNLSAIQDREICCYSISCKEKDNIDITLQWLIQHSKSRRS [ARL8A],54.3 °C,54.4 °C,-0.116,-1.51,-1.71,-0.0955
MICTFLRAVQYTEKLHRSSAKRLLLPYIVLNKACLKTEPSLRCGLQYQKKTLRPRCILGVTQKTIWTQGPSPRKAKEDGSKQVSVHRSQRGGTAVPTSQKVKEAGRDFTYLIVVLFGISITGGLFYTIFKELFSSSSPSKIYGRALEKCRSHPEVIGVFGESVKGYGEVTRRGRRQHVRFTEYVKDGLKHTCVKFYIEGSEPGKQGTVYAQVKENPGSGEYDFRYIFVEIESYPRRTIIIEDNRSQDD [TIMM21],52.1 °C,51.6 °C,0.0282,0.315,-0.0739,-0.209
